We go through 21 sequences from a protein production outcome set (Wang et al. 2014).

A short description of the series: label from the status in PepcDB records.
In the case of “MADLPSISLITATYNAAQHLPGLIESVRQQSDRAFEWIVIDGASEDGTLDLIRGAQDVITDYVSEPDFGIFHALNKGIQRATGDYYLVVGADDRLDPLAIANYKQAAASSQADLISAYIYSEKKAIIKPTGGAIWHHGVQAFITTQSVGTLIKRNLHEHYGYYSHYYPTAADALFILKVQQGGGKITTAEFIAGQYNTKGFSYRYKANLLCELFLIQKEFFPKSIQLLLLIYRLIKNYRYLLEHHHHHH”, the protein production result is listed as “failed”.

For “MEIEQQQPLPSERGLSPVARRALIGAITGCFVLGGVLMLLPPAGREPAAPPAPAAGPMAGPVAQAKAAVGAGVPVALPALAALVTDHETHLRAHPRDARSWAVLGAAYVAQGKGTADAAYFPKAEEALRTSLNVAPRRNAEALGALAALANARGDYREAKQWGEAAVKMAPKQWPAYAQLIDAYDGLGDYKATGKTLDKLLGLRAGPAAAARAAQVYRARGWREDAAAAIADATARAGSPAEQAVYWQQAGELAWERGEPEQALRYFETALRTDPDRHAALAGQGRALAALGRTSDAVNAYRAALAKQPLAAYAVELGELYESQGLGGAAQVQYYLVRERVRQDAAGGVNNRLVVGQFEADHGDAEVAVRELREEWKRQPSIRVADALGWALHRAGQDQEALGFATKAMDKEHGGGVRSALYAYHRGEIERALDQLAPARRHLAEALRINPHFSPWFAPMAKETLAELGEPPAEGLPGDEEVEAAEAEAAEAAEAAQTPEAAESVDPAQTEQVPPPGASTPVPQEPEAR”, the protein production result was “failed”.

As to “MKSAPAVISVAFVLGLLTWLLLHGLNINSARYDSQLRALGDFTRFERGMTREVLTARAGLSRNYDALVHMVNAYDDALTRLRDTAGLDAEQTRVIDVLSARADRQESLIERFKSRNALLQNSFAYFGLFSDRLAASESRPVVTAASALAAAMLRLTLDTSDAAARQVEDRLEELAQLQAPPAETDSVHALLLHGQMLHDLLPDIDTILKTLVAESNNREQDAMLAVILKRQLAARASARKTRLLQYITSLLLLSGIIYFGMLLRKRAMALRRRAAFEHVIANISMLFINSSNDGIDADVEMALRQLAGCIGADRAYFACVVGTTMHTYRWSRDGIAFEPGWPERVLSLAPRLDGGEDGIVYIPRMNASHPHDAMLTEAGVSGWLCIMAAYGSRDGILGFDAVRGGALTYWSEVSLFRMAFDAIGNAIRRARLEGEKERLQASLQQARRMETIGTFASGIAHNFNNIVGAILGHAEMADARVAPGSRPAASLAEIRRAGERARELVEQILGFGRRGEGRRERVCLRTLVDETRSLLAASLPSHVTFEVDETADIAIVTGEPAQLQQVILNLCNNAAQAMKEPGRIELRIKVHDLVKPLSIGRSEVGPGRFTVISVADPGPGMDEATLERIFEPFFTTRPDGNGLGLATVREIVEQHGGAVAVQSRPDAGTRFDIWLPSGEPVEPQPAQHGSDPAFLGAGETVLVIDTDRRRLLRYEEILAALGYEPVGFTGLAEAIAACRAAHARFDAALVCHLPGGSSLDLAAALHDAAPALPIILAAPSTRDLAMPSLKTSGITELVHHPLASAELASALARSLVSSATSGRLRRAAGAS”, the protein production entry is on record as “failed”.

“MSATGLEVFDRTLHKTHAWLKAIMEELGTEDRHKAYLALRAVLHALRDRLTVEEVAQLAAQLPMLVRGLYYEGWDPTGKPLKERHKEAFLAHVAEELKTPSGPAVDPEAATRAVFKVLSREISQGELEDVLGLLPKELRALWPQG”: the protein production entry is given as “not failed”.

Take “MSLAADSADAGFARDMSVHHQQAVEMSYIVRDRTDDEEVRRLAYDIAQTQANQRGMMIGWLDLWALPKVSSDPPMTWMGMGDAPSAGEGSLMPGMATDAEMKKLGTLDGKQAEVYYLQLMTEHHRGGVHMAKGCVERCTVGVEKRLARGMVESQESEIRLMADLLAERGAKEGHHHHHH”: the protein production result is reported as “not failed”.

On to “MLGKDYMLAIILVNCDDDLWGDHSLEVEAGLPPGWRKIHDAAGTYYWHVPSGSTQWQRPTWELGDAEDPGTGTEGIWGLRPPKGRSFSSLESSLDRSNSLSWYGGESYIQSMEPGAKCFAVRSLGWVEVPEEDLAPGKSSIAVNNCIQQLAQTRSRSQPPDGAWGEGQNMLMILKKDAMSLVNPLDHSLIHCQPLVHIRVWGVGSSKGRDRDFAFVASDKDSCMLKCHVFCCDVPAKAIASALHGLCAQILSERVEVSGDASCCSPDPISPEDLPRQVELLDAVSQAAQKYEALYMGTLPVTKAMGMDVLNEAIGTLTARGDRNAWVPTMLSVSDSLMTAHPIQAEASTEEEPLWQCPVRLVTFIGVGRDPHTFGLIADLGRQSFQCAAFWCQPHAGGLSEAVQAACMVQYQKCLVASAARGKAWGAQARARLRLKRTSSMDSPGGPLPLPLLKGGVGGAGATPRKRGVFSFLDAFRLKPSLLHMP”, for which the protein production entry is listed as “not failed”.

On to “MDKQKEQLSIEVARLYYQSDLGQQEIATRLGVSRPTVSRLLQNAKLKGYVKIEVQDPFSNLTELANALKEKYQLKNVTVAFSQTNDYSEISKQISQSAAEYLEEIIHDDDILGVSWGTTMYKIAQKLSPQKAEIKVVQLKGGVSHSDVNTYAAETLALFGAAYDTAPVSLPLPVVLDNPLAKQMVEADRHIKNIIELGKKANIAIFTVGTVREEALLFRLGYFSDEEKIRLKEKAVGDICSRFFTINGEIADEKMNERTIGIDLQDLKQKETAILVAGGERKIKAIHGALRGGYANHFITDQYTAKQLLEQNFSN”, for which the protein production entry was “failed”.

Regarding “MNGFSQLEGLRGHPSVVRVIGHRGARGVMPENTLEGFAFTLAAGVRALEFDVVMTADGVPVVTHNHHLANAMTRDGQGHWLTGAERQVAEMTYAEIRALDVGGLDGRTVYGRRFPDQAFLTGIHVPRLGELLDLCAGYGDQAPYLLLELKSDPALMHDHAARAEMVAAVLADVRRYRMEPRTVMHSFDWALLGECRRQAPDLPTSYLSQLPENADDPGEDSAKPVGPDYDRMTESLPQAVASAGGQLWCPYFLDVTPELVAEAHDLGLIVLTWTVNEPEDIRRMATTGVDGIVTDYPGRTQRILIDMGLSWT”, the protein production entry is “not failed”.

For “LTRSNISYFSIGSGTPIIFLHGLSLDKQSTCLFFEPLSNVGQYQRIYLDLPGMGNSDPISPSTSDNVLETLIEAIEEIIGARRFILYGHSYGGYLAQAIAFHLKDQTLGVFLTCPVITADHSKRLTGKHINILEEDINPVENKEYFADFLSMNVIINNQAWHDYQNLIIPGLQKEDKTFIDQLQNNYSFTFEEKLKNINYQFPFKIMVGRNDQVVGYQEQLKLINHNENGEIVLLNRTGHNLMIDQREAVGFHFDLFLDELNSN”, the protein production result is on record as “failed”.

Take “MDMRVSWFLLLLPFVLTSALAATSAASHASGPPAFMGQLTLLLLVAGATAFASFRLGLVPIIGFLFAGVLAGPSALGIIDDPALIGAASEIGVMLLLFTIGIEFSLDKLARIFRLIFVGGGLQVLLTVAAVTGVLLAFGVSLPNAVFTGFLLSLSSTAIVTKILESRGGVGSPTGQASLGILIFQDLAVVVMVLLVPMLAGQGGGAGGLVVALLKAGGIVAAVLLLARRVVPKLLEVVARTCSQEIFLLSTLSLCFATAYLTSLAGVSLALGAFLAGLLVSESRFGQQAFGEILPLQILFSAAFFLSVGLQLDLGFLWTHLPLVLGAVAVFAVLKALAAALSVRLLGFPLATAAATGWLLAQVGEFSFVLESSGRALGLSPAGLGETGTQTFIAATVLLMALTPVMATLGERLGALGRARPAPTAAPAEAPTRAEPNPEAPLAHLSGHVLVAGFGDHARRLVKGLAAQQVPFGVLTLSPDGAAQVTAHGYPVLIGDYARAGLLGDAGLASARALVVLDDVPEMTARVIGVARTLNPELTIVAHTDEPGEIATLRGVGATHVLTSTDAVARGVLGL”: the protein production result is given as “failed”.

Regarding “MKRRLLCALLASTLAQPLTVRADLPDLGEISDASLSLSDEARIGRDALRAMREAGDVVDDPEVNAYLNDVGGRLAAAAAVPGVRFTYFCVADAGINAFAMPGGYVGINIGLMLASQSEGELAAVLGHETAHVAQRHIARMQAANSAASPLLLLGTIVAAALAAKAGSGDGAMGAVSAGMGLSISRQLAFSRDFEREADRVGMQYMSAAGFDVRNMAAFFQRLEQASRYSDNTAYAFLRTHPVTLERISEAQNRALDYPVRMRADSVDYLLVREKLRVLTLSPEEAVSHYSSALQRGLYLNEGANWYGLARAKLLQHDRAGASEALAKARAKLPDNPMLYGLEVEIARDGRDWAAAARAARNGLSAFPRSVSLQLAQLDVALDGGDRKAAQAQLRQLLDSRRDDPALYRREAKLYADKDPLRYHAALGNAFYYEQRYGAALEQYQLAGKAKGDDFYLRSMLEARLREVEKLAKEERKAARNLEHHHHHH”, the protein production result is listed as “not failed”.

“MHSHPSPKFSVITVTYNAEKVLEDTVQSVISQTYHHVEYIIIDGASKDGTLEIVNRYRNRINQLVSEPDKGLYDAMNKGIALATGDYLCFLNAGDSFHEDDTLQKMVHSINGNELPDILYGETALVDAERHFLRMRRLSAPETLNWKSFKQGMLVCHQAFFPRHTLIEPYDLQYRFSADFDWCIHIMKKARTFHNTHLILIDYLAEGMTTQNHKASLLERFRIMTRHYGLLSTLAHHAWFVVRSFSRNSATPSDAPFLEHHHHHH”: the protein production entry was “failed”.

Turning to “MTKLALFVRLEAKPGQEAALADFLASALPLANAESGTTAWFALKFGPSTFGVFDAFADEAGRQAHLNGQIAAALMANAATLLSSPPNIEKVELLAAKLPA”, the protein production result is on record as “not failed”.

Consider “MHISIKTLEGKRIKLEVEDSSNTIDLKIHGEPTRELVVDLSPTPDTGAIMMIFIKTLTGRTNTYEVKGSDTIRELKAKHEEKEGIPVEQQRLIFQGRISIKTVKGKSINLEVADSSDTIDLKINGEPTRQLVLRLGPAVLMRIFVSTIKEKTFILEVKGSDTIKKLKSMIHDQGGPPVDQQDLNHLGTKLKNNATISDYNIKPDANLVIMQNGCIC”, for which the protein production entry is given as “failed”.

With “MGFHLRGNNDFAFKRLYINLPQNSQMRAQLRRLIDNGSDTVVVSDKQDADAFLDVLSENRVKTISSLTPQGVVREYRITYRFSFQLRDAHDNLLIPPSEITLFRDLSYNETQVLAKDYEEAALYRDMQGDIVNQLVRRLASVRLPSLEHHHHHH”, the protein production result is reported as “not failed”.

“MDPNKVEISRLEALPQDLLREIVAKIGVKSAEDYHNCILSCKELGASANDERVLKTLNLALLVKKPLSCRKHLLIMKKCLANNNPDAHYIKGIIWYFNLDHCDVDLHHIGIAANGGQKEAIYMYAMLLLCRGRTEEGKTYMSQLEWAKTPPWLKRVGNKSKLH”: the protein production result is recorded as “failed”.

Regarding “EDSLATVKVVLIPVGQEIVIPFKVDTILKYLKDHFSHLLGIPHSVLQIRYSGKILKNNETLVQHGVKPQEIVQVEIFSTNPDLYPVRR”, the protein production entry is on record as “failed”.

Regarding “MSHLYDPTTQYYTGEYPKQKQPAPGVQAKMTPVPDCGEKSYVGSGRLKDRKALVTGGDSGIGRAAAIAYAREGADVAINYLPAEEEDAQQVKALIEECGRKAVLLPGDLSDESFARSLVHKAREALGGLDILALVAGKQTAIPEIKDLTSEQFQQTFAVNVFALFWITQEAIPLLPKGASIITTSSIQAYQPSPHLLDYAATKAAILNYSRGLAKQVAEKGIRVNIVAPGPIWTALQISGGQTQDKIPQFGQQTPMKRAGQPAELAPVYVYLASQESSYVTAEVHGVCGGEHLG”, the protein production entry is given as “not failed”.

“ALSSLNIIHIAAPHLEALNIATGETINFSSREDDHAILIYKLEPTTGMLRTRAYIGQHMPLYCSAMGKIYMAFGHPDYVKSYWENHQHEIQPLTRNTITELPAMFDELAHIRESGAAMDREENELGVSCIAVPVFDIHGRVPYAVSISLSTSRLKQVGEKNLLKPLRETAQAISNELGFTVRDDLGAIT”: the protein production result is reported as “not failed”.

Consider “MNAQLQYQIEQFFYRKSELCDAQDWDAYLQLFAVDSEFHLPQWDSEHVYTRDPKREMSLIYYANRSGLEDRVFRLRTGKAASTIPMPRTLHMVSNLRIAEGDNGLLRVRLNWHTLFYRLATSEEFYGHATYDLKPQGDSWLIQRKHVLLLNDTINSVLDFYHL”, for which the protein production entry is “failed”.

As to “MHEQLSPRDQELEARLVELETRLSFQEQALTELSEALADARLTGARNAELIRHLLEDLGKVRSTLFADAADEPPPPHY”, the protein production entry is listed as “not failed”.
